According to article PMC2935386:

Target: fluorescein-labelled zinc finger region of GATA2 (GATA2-Zf), residues 291-412 (UniProt P23769)
Assay: fluorescence polarisation; fluorescence anisotropy; 10nM fluorescein-labeled GATA2-Zf titrated with unlabeled, unliganded TR DBD-LBD or TR DBD, 1nM to 10.000nM; 10°C, 50mM NaCl, 20mM Hepes pH8.0, 3mM dithiothreitol, 5% glycerol

fluorescein-labelled zinc finger region of GATA2 (GATA2-Zf), residues 291-412, sequence (P23769 291-412): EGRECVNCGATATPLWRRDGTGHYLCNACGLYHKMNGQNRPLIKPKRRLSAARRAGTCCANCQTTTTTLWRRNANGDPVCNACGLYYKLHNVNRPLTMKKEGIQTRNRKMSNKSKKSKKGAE

Work on “human TRβ1ΔAB/EF (TR DBD), thyroid hormone receptor β1 residues 102-198, poly-histidine construct (from UniProt P10828-1 102-198) (domain or fragment)” yielded a Kd of 1930 nM.
